From the supplement of paper PMC10567573

B1: CPXM2 (parent)
chain: EILGCPLPDPNNYYHRRNEMTTTD

Variants of: B1
Assay: protein stability index of a GFP-peptide fusion (GPS, HEK-293T) (PSI 1-6); higher = more stable
Settings: c terminus: a fixed tail appended
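Note: lentivirally expressed fusions sorted by FACS into six bins by GFP to DsRed ratio, PSI derived from sequencing read proportions per bin multiplied by bin number.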

Point of comparison: EILGCALPDPNNYYHRRNEMTTTD, protein stability index 3.16. Against it:
- EILGSPLPDPNNYYHRRNEMTTTD — higher, 4.17
- EILGVPLPDPNNYYHRRNEMTTTD — higher, 3.41
- EILGIPLPDPNNYYHRRNEMTTTD — higher, 3.28
- EILGQPLPDPNNYYHRRNEMTTTD — higher, 3.85
- EILGNPLPDPNNYYHRRNEMTTTD — higher, 3.61
- EILGRPLPDPNNYYHRRNEMTTTD — higher, 3.54
- EILGHPLPDPNNYYHRRNEMTTTD — higher, 3.91
- EILGTPLPDPNNYYHRRNEMTTTD — higher, 3.8
- EILGPPLPDPNNYYHRRNEMTTTD — higher, 4.42
- EILGWPLPDPNNYYHRRNEMTTTD — lower, 2.72
- EILGGPLPDPNNYYHRRNEMTTTD — higher, 3.76
- EILGKPLPDPNNYYHRRNEMTTTD — higher, 4.08
- EILGLPLPDPNNYYHRRNEMTTTD — higher, 3.62
- EILGYPLPDPNNYYHRRNEMTTTD — lower, 2.96
- EILGMPLPDPNNYYHRRNEMTTTD — higher, 3.83
- EILGCPLPDPNNRYHRRNEMTTTD — higher, 4.04
- EILGCPLPDPNNQYHRRNEMTTTD — higher, 4.06
- EILGCPLPDPNNKYHRRNEMTTTD — higher, 4.14
- EILGCPLPDPNNDYHRRNEMTTTD — higher, 4.43
- EILGCPLPDPNNAYHRRNEMTTTD — higher, 4.21
- EILGCPLPDPNNMYHRRNEMTTTD — higher, 4
- EILGCPLPDPNNGYHRRNEMTTTD — higher, 4.08
- EILGCPLPDPNNSYHRRNEMTTTD — higher, 3.86
- EILGCPLPDPNNCYHRRNEMTTTD — higher, 3.77
- EILGCPLPDPNNPYHRRNEMTTTD — higher, 4.12
- EILGCPLPDPNNNYHRRNEMTTTD — higher, 3.89
- EILGCPLPDPNNWYHRRNEMTTTD — lower, 2.9
- EILGCPLPDPNNEYHRRNEMTTTD — higher, 4.29
- EILGCPLPDPNNLYHRRNEMTTTD — higher, 3.58
- EILGCPLPDPNNIYHRRNEMTTTD — higher, 3.92
- EILGCPLPDPNNFYHRRNEMTTTD — higher, 3.35
- EILGCPLPDPNNHYHRRNEMTTTD — higher, 4.18
- EILGCPLPDPNNVYHRRNEMTTTD — higher, 4.03
- EILGCPLPDPNNTYHRRNEMTTTD — higher, 4.35
- EILGCPLPDDNNYYHRRNEMTTTD — higher, 3.88
- EILGCPLPDMNNYYHRRNEMTTTD — higher, 3.44
- EILGCPLPDVNNYYHRRNEMTTTD — higher, 3.46
- EILGCPLPDHNNYYHRRNEMTTTD — higher, 3.66
- EILGCPLPDTNNYYHRRNEMTTTD — higher, 3.6
- EILGCPLPDNNNYYHRRNEMTTTD — higher, 3.37
- EILGCPLPDYNNYYHRRNEMTTTD — lower, 2.91
- EILGCPLPDINNYYHRRNEMTTTD — lower, 3.09
- EILGCPLPDANNYYHRRNEMTTTD — higher, 3.45
- EILGCPLPDFNNYYHRRNEMTTTD — higher, 3.18
- EILGCPLPDKNNYYHRRNEMTTTD — higher, 3.41
- EILGCPLPDSNNYYHRRNEMTTTD — higher, 3.42
- EILGCPLPDCNNYYHRRNEMTTTD — higher, 3.26
- EILGCPLPDENNYYHRRNEMTTTD — higher, 4.08
- EILGCPLPDRNNYYHRRNEMTTTD — higher, 3.49
- EILGCPLPDGNNYYHRRNEMTTTD — higher, 3.95
- EILGCPLPDQNNYYHRRNEMTTTD — higher, 3.4
- EILGCPLPDLNNYYHRRNEMTTTD — lower, 2.8
- EILGCPLPDWNNYYHRRNEMTTTD — lower, 2.72
- EILGCFLPDPNNYYHRRNEMTTTD — lower, 1.91
- EILGCVLPDPNNYYHRRNEMTTTD — lower, 2.48
- EILGCWLPDPNNYYHRRNEMTTTD — lower, 2.46
- EILGCHLPDPNNYYHRRNEMTTTD — lower, 2.94
- EILGCILPDPNNYYHRRNEMTTTD — lower, 2.01
- EILGCNLPDPNNYYHRRNEMTTTD — lower, 2.8
- EILGCLLPDPNNYYHRRNEMTTTD — lower, 2.14
- EILGCRLPDPNNYYHRRNEMTTTD — lower, 2.84
- EILGCQLPDPNNYYHRRNEMTTTD — lower, 2.92
- EILGCTLPDPNNYYHRRNEMTTTD — higher, 3.49
- EILGCELPDPNNYYHRRNEMTTTD — higher, 3.58
- EILGCGLPDPNNYYHRRNEMTTTD — lower, 2.87
- EILGCMLPDPNNYYHRRNEMTTTD — lower, 2.07
- EILGCKLPDPNNYYHRRNEMTTTD — lower, 2.76
- EILGCSLPDPNNYYHRRNEMTTTD — higher, 3.4
- EILGCYLPDPNNYYHRRNEMTTTD — lower, 2.44
- EILGCDLPDPNNYYHRRNEMTTTD — higher, 3.95
- EILGCCLPDPNNYYHRRNEMTTTD — lower, 2.92
- EILGCPNPDPNNYYHRRNEMTTTD — higher, 4.13
- EILGCPSPDPNNYYHRRNEMTTTD — higher, 4.14
- EILGCPEPDPNNYYHRRNEMTTTD — higher, 4.08
- EILGCPMPDPNNYYHRRNEMTTTD — higher, 3.59
- EILGCPRPDPNNYYHRRNEMTTTD — higher, 3.69
- EILGCPKPDPNNYYHRRNEMTTTD — higher, 3.88
- EILGCPHPDPNNYYHRRNEMTTTD — higher, 3.88
- EILGCPYPDPNNYYHRRNEMTTTD — higher, 3.61
- EILGCPWPDPNNYYHRRNEMTTTD — higher, 3.32
- EILGCPQPDPNNYYHRRNEMTTTD — higher, 3.68
- EILGCPCPDPNNYYHRRNEMTTTD — higher, 3.83
- EILGCPFPDPNNYYHRRNEMTTTD — higher, 3.38
- EILGCPDPDPNNYYHRRNEMTTTD — higher, 4.04
- EILGCPGPDPNNYYHRRNEMTTTD — higher, 3.48
- EILGCPVPDPNNYYHRRNEMTTTD — higher, 3.31
- EILGCPIPDPNNYYHRRNEMTTTD — higher, 3.79
- EILGCPLPDPCNYYHRRNEMTTTD — lower, 2.72
- EILGCPLPDPSNYYHRRNEMTTTD — the same, 3.16
- EILGCPLPDPRNYYHRRNEMTTTD — lower, 3.04
- EILGCPLPDPGNYYHRRNEMTTTD — lower, 3.15
- EILGCPLPDPYNYYHRRNEMTTTD — lower, 3.13
- EILGCPLPDPVNYYHRRNEMTTTD — higher, 3.38
